Results taken from patent publication US20240124885A1 (MENDEL BIOTECHNOLOGY, published 2024).
Each block holds one binder with its values, some of them ahead of it.

Experiments:
[1] = target: Flag::GmBBX62 (Glycine max); experiment: Luminex co-IP from soybean protoplast extract, anti-GFP capture, anti-FLAG detection
[2] = target: Flag::GmBBX62 (Glycine max); experiment: reciprocal Luminex co-IP from soybean protoplast extract, anti-FLAG capture, anti-GFP detection
AtBBX32::GFP [3] = target: T1, AtBBX32::GFP (Arabidopsis thaliana, UniProt Q9LJB7 1-225); experiment: Luminex co-IP from soybean cotyledon protoplast extract, both directions
T1 construct: Fusion protein transiently expressed in soybean cotyledon protoplasts; also called AtBBX32 fused to GFP; not shown: GFP fusion partner
T1 sequence: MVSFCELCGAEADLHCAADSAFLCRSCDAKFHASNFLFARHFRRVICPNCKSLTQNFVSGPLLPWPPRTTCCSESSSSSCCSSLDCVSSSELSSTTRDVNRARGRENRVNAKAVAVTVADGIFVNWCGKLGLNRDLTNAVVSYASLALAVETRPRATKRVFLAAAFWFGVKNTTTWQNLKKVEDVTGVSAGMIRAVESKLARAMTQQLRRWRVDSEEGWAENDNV
Protocol: (§1) Capture antibodies for GFP (MBL International, D153-3),Myc (Bethyl Laboratories cat #A190-104A)and FLAG (Bethyl Laboratories, A190-101A) were covalently coupled to carboxylated fluorescent microspheres (Luminex) according to the manufacturer's protocol Luminex two-step Carbodimide coupling protocol was modified as follows: 3.5×10⁶ beads were conjugated to […] of antibody and resuspended in coupling buffer containing 100 mM MES pH 6. Biotinylated antibodies for GFP (Abcam, ab6658), Myc (Bethyl Laboratories cat #A190-104B)and FLAG (Bethyl laboratories, A190-101B) were used for detection of interacting proteins in the miniaturized sandwich immunoassay. NeutrAvidin R-phycoerythrin was used as the reporter assay reagent (Invitrogen, A2660).
To assess the potential interaction between AtBBX32 and GmBBX39, two experiments were conducted consisting of a total of three repetitions (exp. 1, n=1; exp. 2, n=2). BBX32::GFP was co-expressed with FLAG::GmBBX39 in soybean cotyledon protoplasts. Expression analyses on one replicate of each treatment using either Luminex (BBX32::GFP) or Western blot (FLAG::BBX39) detection confirmed that each protein was expressed at detectable levels (data not shown). When co-expressed in protoplasts, BBX32::GFP and FLAG::BBX39 co-precipitated with either anti-GFP or anti-FLAG beads (FIG. 17).

AtBBX32::GFP [4] = target: T1, AtBBX32::GFP; experiment: Luminex co-IP, anti-GFP and anti-Myc capture
Protocol: Luminex co-IP assays were performed on extracts from soybean cotyledon protoplasts co-expressing AtBBX32 fused to GFP and GmBBX39 fused to the Myc epitope. A: IP with anti-GFP, detection with anti-Myc. B: IP with anti-Myc, detection with anti-GFP. MFI stands for Median Fluorescence Intensity. * denotes p<0.001.
as §1

fold increase of median fluorescence intensity (MFI) over controls [1]: 6 fold
fold increase of fluorescence intensity over controls [2]: 5 fold
B1: AtBBX32::GFP (protein, not shown: large carriers)
chain: MVSFCELCGAEADLHCAADSAFLCRSCDAKFHASNFLFARHFRRVICPNCKSLTQNFVSGPLLPWPPRTTCCSESSSSSCCSSLDCVSSSELSSTTRDVNRARGRENRVNAKAVAVTVADGIFVNWCGKLGLNRDLTNAVVSYASLALAVETRPRATKRVFLAAAFWFGVKNTTTWQNLKKVEDVTGVSAGMIRAVESKLARAMTQQLRRWRVDSEEGWAENDNV

binding result (AtBBX32::GFP [3]): binds
B2: FLAG::GmBBX39 (other)
chain: MKIQCDVCNKHEASVFCTADEAALCDGCDHRVHHANKLASKHQRFSLLRPSPKQHPLCDICQERRAFTFCQQDRAILCKECDVSIHSANEHTLKHDRFLLTGVKLSASAMLRSSETTSDSNSNPSLLNFSHQTTLLPPSSTTTTTTSNNNNNKVAVEGTGSTSASSISEYLIETLPGWQVEDFLDSYSVPFGFCKNDEVLPRFDGEMEGHLSSFSTENMGIWVPQAPPTLMCSSQMDRVIVHGETNIKGSSRSRLKDDNFTVPQISPPSNSKRARFLW
notes: Co-expressed with BBX32::GFP in soybean cotyledon protoplasts; also called FLAG::BBX39; not shown: FLAG tag

binding result (AtBBX32::GFP [4]): binds
B3: GmBBX39 fused to the Myc epitope (other, not shown: small tags and cut ends)
chain: MKIQCDVCNKHEASVFCTADEAALCDGCDHRVHHANKLASKHQRFSLLRPSPKQHPLCDICQERRAFTFCQQDRAILCKECDVSIHSANEHTLKHDRFLLTGVKLSASAMLRSSETTSDSNSNPSLLNFSHQTTLLPPSSTTTTTTSNNNNNKVAVEGTGSTSASSISEYLIETLPGWQVEDFLDSYSVPFGFCKNDEVLPRFDGEMEGHLSSFSTENMGIWVPQAPPTLMCSSQMDRVIVHGETNIKGSSRSRLKDDNFTVPQISPPSNSKRARFLW
